Results on one molecule are retold here after PMC4553633, “RA Acts in a Coherent Feed-Forward Mechanism with Tbx5 to Control Limb Bud Induction and Initiation”.

The series addresses T1, flag-RARα (mRARα);myc-RXRα (mRXRα) (Mus musculus;Mus musculus, UniProt P11416;P28700 1-462;1-467, |).
T1 sequence 1: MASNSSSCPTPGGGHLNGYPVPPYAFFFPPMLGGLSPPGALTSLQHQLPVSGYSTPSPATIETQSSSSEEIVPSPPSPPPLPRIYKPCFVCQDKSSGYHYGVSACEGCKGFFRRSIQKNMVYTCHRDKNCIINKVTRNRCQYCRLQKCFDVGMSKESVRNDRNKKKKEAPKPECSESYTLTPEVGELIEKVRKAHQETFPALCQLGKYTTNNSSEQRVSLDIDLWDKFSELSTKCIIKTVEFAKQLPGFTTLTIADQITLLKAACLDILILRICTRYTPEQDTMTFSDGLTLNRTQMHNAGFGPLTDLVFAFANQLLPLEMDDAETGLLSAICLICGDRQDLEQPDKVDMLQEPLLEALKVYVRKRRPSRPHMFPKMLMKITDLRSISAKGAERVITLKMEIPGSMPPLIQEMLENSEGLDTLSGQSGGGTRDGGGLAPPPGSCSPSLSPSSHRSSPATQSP
T1 sequence 2: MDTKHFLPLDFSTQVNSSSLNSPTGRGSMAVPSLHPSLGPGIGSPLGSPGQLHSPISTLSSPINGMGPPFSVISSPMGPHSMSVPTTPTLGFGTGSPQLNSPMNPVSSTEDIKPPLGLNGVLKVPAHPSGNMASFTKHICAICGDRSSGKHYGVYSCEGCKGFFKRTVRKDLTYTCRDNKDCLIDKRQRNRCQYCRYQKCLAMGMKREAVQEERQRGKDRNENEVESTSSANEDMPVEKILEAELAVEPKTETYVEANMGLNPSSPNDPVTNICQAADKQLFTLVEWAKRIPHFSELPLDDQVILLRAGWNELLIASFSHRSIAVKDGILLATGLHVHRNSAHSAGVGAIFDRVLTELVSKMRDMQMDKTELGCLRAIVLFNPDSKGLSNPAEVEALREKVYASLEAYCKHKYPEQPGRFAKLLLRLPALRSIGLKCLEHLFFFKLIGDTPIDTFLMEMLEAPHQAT
As to the kind of experiment: EMSA; EMSA essentially as Forman et al. 1992 and Shtutman et al. 1999; buffer, salt, pH and temperature not stated. The note with it: protein: ivt;ivt; tags: N-terminal flag;N-terminal myc; copies: 1;1; blunt (complement S6 printed; duplex implied).

B1: RARE3 mut (dsDNA)
DNA 1: CCGGCAGCTGCGATGACTGCTCCCTCCTTA
DNA 2: TAAGGAGGGAGCAGTCATCGCAGCTGCCGG
For B1, the binding result was “no binding”.
